Values belong to the molecule of their own block, whether it stands above or below them. Where no end group is shown, it is not given here. TAMRA = carboxytetramethylrhodamine
Key:
[1] = system: CRL4Cdt2 (WT): Cdt2-3FLAG with Cul4A, DDB1, Rbx1;PCNA (Homo sapiens;Homo sapiens); assay: pull-down (DNA beads, Western blot); conditions: PCNA preloaded by RFC with ATP; no Cdt1; 408 fmol Cdt2 on […] fmol PCNA trimer; biotin-dT in the second strand; single nick by Nb.BbvCI; HBS: 10 mM Hepes pH 7.4, 0.15 M NaCl, 10 mM MgCl2, 0.2 mM EDTA, 0.05% Tween 20; loading with 2 mM ATP, 37 C 1 h; Cdt1/CRL4Cdt2 binding 4 C 1 h
[2] = system: Cdt1-3FLAG;PCNA (Homo sapiens;Homo sapiens); assay: pull-down (DNA beads, Western blot); conditions: PCNA preloaded by RFC with ATP; 301 fmol Cdt1 on […] fmol PCNA trimer; biotin-dT in the second strand; single nick by Nb.BbvCI; HBS: 10 mM Hepes pH 7.4, 0.15 M NaCl, 10 mM MgCl2, 0.2 mM EDTA, 0.05% Tween 20; loading with 2 mM ATP, 37 C 1 h; Cdt1/CRL4Cdt2 binding 4 C 1 h
[3] = system: free PCNA; assay: Binding of free PCNA to Cdt1 or CRL4^Cdt2 on anti-FLAG beads; set-up: species or system human; conditions: 2 h at 4°C, Western blotting, three independent experiments
From the text: FLAG-tagged Cdt1 (Cdt1-3FLAG) and CRL4^Cdt2 (Cdt2-3FLAG) were expressed in insect cells and purified on anti-FLAG resin (Fig 5A).

[4] = target: T1, full-length human PCNA (recombinant, for peptide binding and crystallography) (human, UniProt P12004 1-261); assay: fluorescence polarisation; 1 nM labelled peptide mixed with PCNA at 0 to 2 μM; 10 mM Hepes pH 7.5, 125 mM NaCl, 0.5 mM TCEP; non-binding 96-well plates; triplicates; conditions: both partners purified
T1 construct: PCNA, human, full length; also called recombinant PCNA; source: E. coli Bl21 (DE3), purified as described (Hibbert & Sixma, 2012)

[5] = system: DDB1, Cul4A; assay: Co-immunoprecipitation of DDB1 / Cul4A with FLAG-tagged Cdt2 constructs; assay type: cell-based, human; conditions: anti-FLAG IP, cross-linked cells
From the text: (§1) Before cell lysate preparation, cells were cross-linked.
(§2) Figure 3. […] HEK293 cells were transfected with plasmids expressing the indicated Cdt2 fused to a C-terminal FLAG tag, cross-linked, and precipitated with anti-FLAG antibodies (arrows). […] The bands in the blank lanes for Cul4A blotting correspond to the cross-reacting bands to pre-stained marker. […] HEK293 cells were transfected with the indicated plasmids and treated as in A. * indicates nonspecific bands derived from IgGs. (C) A schematic drawing of the Cdt2 domain structure highlighting the C-terminal PIP box and a sequence alignment of PIP boxes in various organisms. The alanine-changed PIP box mutant of Cdt2 was shown (PIP-3A) together with Cdt1 PIP box. (D) HEK293 cells were transfected with Cdt2^WT or PIP box mutant (Cdt2^PIP-3A) C-terminally fused to a FLAG tag, treated as in B, and Cdt2 was precipitated with anti-FLAG resin.
(§3) Control or Cdt2-FLAG expressing 293 cells that were UV irradiated (50 J/m^2), or not UV irradiated, or in the middle S phase (5 h after release from aphidicolon arrest) were fixed with 0.02% formaldehyde for 10 min, lysed using 0.1% Triton X-100-containing modified cytoskeleton (mCSK) buffer (10 mM Pipes, pH 7.9, 100 mM NaCl, 300 mM sucrose, 0.1% [vol/vol] Triton X-100, 1 mM phenylmethylsulfonyl fluoride, 10 mM β-glycerophosphate, 1 mMNa3VO4, 10 mM NaF), and then sonicated. After centrifugation (120,000g, Beckman Type 45Ti rotor, for 20 min at 4°C), the supernatants were mixed with anti-FLAG antibody-conjugated magnetic beads (M8823; Sigma-Aldrich) for 1 h at 4°C to obtain immunoprecipitates. The precipitate was washed with ice-cold 0.1% Triton X-100 containing mCSK buffer and subsequently suspended in SDS sample buffer.

[6] = system: PCNA; assay: Co-immunoprecipitation of PCNA with FLAG-tagged Cdt2 constructs; assay type: cell-based, human; conditions: cross-linked cells, 3FLAG fusions, no UV
From the text: as §1, §2, §3

[7] = system: MCF7 cells, DNA-damage (CPD) sites; assay: Recruitment of GFP-Cdt2 constructs to DNA-damage sites in MCF7 cells; assay type: cell-based, human; conditions: MCF7, UV-C 50 J/m^2, GFP fusions; two independent experiments
From the text: Figure 2. The C-terminus of Cdt2 mediates Cdt2 recruitment to sites of damage. (A) A schematic drawing of the domain structure of Cdt2 and constructs used. (B) The C-terminal, but not the N-terminal, part of Cdt2 mediates recruitment to DNA damage sites. MCF7 cells transfected with the indicated plasmids were locally UV-C irradiated (50 J/m^2 through 5 μm pore diameter micropore filters), and recruitment of each Cdt2 construct to sites of damage was examined by staining with α-CPD antibody and GFP signal.
For Western blotting, whole-cell lysates were prepared by lysing cell pellets directly in SDS–PAGE buffer. For immunofluorescence, U2OS or HEK293 cells were fixed in 4% paraformaldehyde (PFA; WAKO) for 10 min, permeabilized in 0.25% (vol/vol) Triton X-100 in PBS, and stained with the indicated antibodies as described previously. […] For cyclobutane pyrimidine dimer (CPDs) staining, MCF7 and HeLa cells were fixed in 4% PFA for 10 min, permeabilized in 0.3% Triton X-100 in PBS, and then incubated in 0.5 N NaOH for 5 min for DNA denaturation before immunofluorescence. Alexa488-conjugated anti-mouse and […] anti-rabbit antibodies were used as secondary antibodies with Hoechst 33258 to visualize DNA. […] Protein levels were analysed by ImageJ software.
We used a method to induce DNA photoproducts within localized areas of the cell nucleus as described in Ishii et al (2010). To perform micropore UV irradiation, cells were cultured on cover slips, washed twice with PBS, and subsequently covered with an isopore polycarbonate membrane filter (Millipore) with a pore size of either 3 or 5 μm in diameter, and irradiated. UV irradiation was achieved using a UV lamp (SUV-16, As One, Japan) with a dose rate of 0.4 J/m^2·s, which was monitored with a UV radiometer (UVX Radiometer, UVP) at 254 nm, or with a UV box equipped with a UV-C lamp monitored with a VLX-3W radiometer (Vilber Lourmat) at 254 nm (CX-254 sensor). The filter was removed and cells were either fixed or cultured for the indicated time before fixation, and processed for immunofluorescence. […]

T1 sequence (P12004 whole entry): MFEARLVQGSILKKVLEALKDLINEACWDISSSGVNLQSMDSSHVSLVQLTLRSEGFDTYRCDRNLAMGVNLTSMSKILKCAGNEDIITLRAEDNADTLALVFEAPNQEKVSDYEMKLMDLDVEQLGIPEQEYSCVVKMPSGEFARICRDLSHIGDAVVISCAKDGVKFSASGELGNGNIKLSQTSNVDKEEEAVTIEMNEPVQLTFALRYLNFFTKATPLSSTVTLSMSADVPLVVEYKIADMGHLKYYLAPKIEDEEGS

Molecule: ncDNA beads (singly nicked circular pBluescript II KS(-))
binding signal (Cdt2 per PCNA trimer) [1]: 2.57 | binding signal (Cdt1 per PCNA trimer) [2]: 2.04

Molecule: CRL4^Cdt2: E3 ligase complex of Cdt2-3FLAG, DDB1, HA-Cul4, His-myc-Rbx1, purified from insect cells
binding of free PCNA to protein beads [3]: much less

B2: Cdt1^PIP-TAMRA (1–14) (peptide)
peptide: MEQRRVTDFFARRR
modifications: also: TAMRA label, position not given here
notes: Cdt1 N-terminal PIP box peptide, residues 1-14; also called Cdt1 PIP box peptide; source: synthetic peptide (in-house Fmoc synthesis)
Kd [4]: 7200 ± 200 nM

B4: Cdt2^600–730: C-terminal 130 amino acids of Cdt2 (protein)
chain: KDSLGPTKSSKIEGAGTSISEPPSPISPYASESCGTLPLPLRPCGEGSEMVGKENSSPENKNWLLAMAAKRKAENPSPRSPSSQTPNSRRQSGKKLPSPVTITPSSMRKICTYFHRKSQEDFCGPEHSTEL
modifications: left off: 3FLAG, N-terminal, kept | 3NLS, N-terminal, state not stated | myc, N-terminal, state not stated
notes: C-terminal 130 amino acids of Cdt2
interaction with PCNA (anti-FLAG IP) [6]: sufficient to mediate the interaction with PCNA

B5: Cdt2^1–700: Cdt2 with the C-terminal 30 amino acids deleted (protein)
chain: MLFNSVLRQPQLGVLRNGWSSQYPLQSLLTGYQCSGNDEHTSYGETGVPVPPFGCTFSSAPNMEHVLAVANEEGFVRLYNTESQSFRKKCFKEWMAHWNAVFDLAWVPGELKLVTAAGDQTAKFWDVKAGELIGTCKGHQCSLKSVAFSKFEKAVFCTGGRDGNIMVWDTRCNKKDGFYRQVNQISGAHNTSDKQTPSKPKKKQNSKGLAPSVDFQQSVTVVLFQDENTLVSAGAVDGIIKVWDLRKNYTAYRQEPIASKSFLYPGSSTRKLGYSSLILDSTGSTLFANCTDDNIYMFNMTGLKTSPVAIFNGHQNSTFYVKSSLSPDDQFLVSGSSDEAAYIWKVSTPWQPPTVLLGHSQEVTSVCWCPSDFTKIATCSDDNTLKIWRLNRGLEEKPGGDKLSTVGWASQKKKESRPGLVTVTSSQSTPAKAPRAKCNPSNSSPSSAACAPSCAGDLPLPSNTPTFSIKTSPAKARSPINRRGSVSSVSPKPPSSFKMSIRNWVTRTPSSSPPITPPASETKIMSPRKALIPVSQKSSQAEACSESRNRVKRRLDSSCLESVKQKCVKSCNCVTELDGQVENLHLDLCCLAGNQEDLSKDSLGPTKSSKIEGAGTSISEPPSPISPYASESCGTLPLPLRPCGEGSEMVGKENSSPENKNWLLAMAAKRKAENPSPRSPSSQTPNSRRQSGKKLPSPVT
modifications: left off: HA, N-terminal, state not stated | 3FLAG, C-terminal, kept
notes: Cdt2 with the C-terminal 30 amino acids deleted
interaction with PCNA (anti-FLAG IP) [6]: loss of interaction with PCNA

Continued, in another order:

Kd [4]: 36 ± 2 nM
Molecule: RRQTSMTDFYHSKR (p21 PIP box peptide) [p21 PIP box peptide]

binding to DDB1 (and Cul4A) [5]: lost its ability to bind DDB1
B1: Cdt2^390–730: C-terminal Cdt2 construct (protein)
chain: LNRGLEEKPGGDKLSTVGWASQKKKESRPGLVTVTSSQSTPAKAPRAKCNPSNSSPSSAACAPSCAGDLPLPSNTPTFSIKTSPAKARSPINRRGSVSSVSPKPPSSFKMSIRNWVTRTPSSSPPITPPASETKIMSPRKALIPVSQKSSQAEACSESRNRVKRRLDSSCLESVKQKCVKSCNCVTELDGQVENLHLDLCCLAGNQEDLSKDSLGPTKSSKIEGAGTSISEPPSPISPYASESCGTLPLPLRPCGEGSEMVGKENSSPENKNWLLAMAAKRKAENPSPRSPSSQTPNSRRQSGKKLPSPVTITPSSMRKICTYFHRKSQEDFCGPEHSTEL
modifications: left off: 3FLAG, N-terminal, kept | 3NLS, N-terminal, state not stated | myc, N-terminal, state not stated
notes: C-terminal Cdt2 construct
interaction with PCNA (anti-FLAG IP) [6]: still binds to PCNA | recruitment to DNA-damage sites [7]: efficiently recruited to DNA-damage sites

Kd [4]: 57 ± 3 nM
B3: Cdt2^PIP-TAMRA (704–717) (peptide)
peptide: {TAMRA}-SSMRKICTYFHRKS
notes: human Cdt2 PIP box, residues 704-717; also called Cdt2 PIP box peptide; source: synthetic peptide (in-house Fmoc synthesis)

binding to DDB1 (and Cul4A) [5]: still able to bind DDB1
B6: Cdt2^1–417: Cdt2 N-terminal WD40 domain construct (protein)
chain: MLFNSVLRQPQLGVLRNGWSSQYPLQSLLTGYQCSGNDEHTSYGETGVPVPPFGCTFSSAPNMEHVLAVANEEGFVRLYNTESQSFRKKCFKEWMAHWNAVFDLAWVPGELKLVTAAGDQTAKFWDVKAGELIGTCKGHQCSLKSVAFSKFEKAVFCTGGRDGNIMVWDTRCNKKDGFYRQVNQISGAHNTSDKQTPSKPKKKQNSKGLAPSVDFQQSVTVVLFQDENTLVSAGAVDGIIKVWDLRKNYTAYRQEPIASKSFLYPGSSTRKLGYSSLILDSTGSTLFANCTDDNIYMFNMTGLKTSPVAIFNGHQNSTFYVKSSLSPDDQFLVSGSSDEAAYIWKVSTPWQPPTVLLGHSQEVTSVCWCPSDFTKIATCSDDNTLKIWRLNRGLEEKPGGDKLSTVGWASQKKKESR
modifications: left off: HA, N-terminal, state not stated | 3FLAG, C-terminal, kept
notes: Cdt2 N-terminal WD40 domain construct
interaction with PCNA (anti-FLAG IP) [6]: lost most of its affinity for PCNA | recruitment to DNA-damage sites [7]: no evidence for recruitment

Source: paper PMC6312923 (Life Science Alliance, 2018)
